Experimental data from paper doi:10.1101/2021.03.15.435411.
“And” between values parts separate entries of the source, which are not always exact repeats. Identical values can stand only once. Like-named read-outs stand apart in the source and are kept apart here.

Tests used:
[1] = target: WAVE1ΔN, minimal Arp2/3-activating fragment of human WAVE1 (PVCA) (human); assay: FRET or BRET
[2] = target: WAVE1ΔN, minimal Arp2/3-activating fragment of human WAVE1 (PVCA) (human); assay: FRET or BRET; remark: listed apart in the source
[3] = target: Native bovine (β, γ)-actin (bovine) (UniProt P60712); assay: single-filament TIRF microscopy
[4] = target: Native bovine (β, γ)-actin (bovine) (UniProt P60712); assay: single-molecule / single-filament TIRF microscopy
[5] = target: Native bovine (β, γ)-actin (bovine) (UniProt P60712); assay: TIRF microscopy, KD calculated from rate constants

Row | Substance | percent quenching of NPF donor fluorescence [1] | percent quenching of NPF donor fluorescence [2] [%] | fold change of koff against wild-type CP [3] [fold] | fold change of kon against wild-type CP [4] [fold] | fold reduction of affinity against wild-type CP [5] [fold]
1 | Atto540Q-quencher labeled Acanthamoeba castellani actin monomers (natural protein) | 59% and 69% | 14 |  |  | 
2 | Capping protein lacking the last 23 amino acids of the β subunit (CPαβΔ23) (from UniProt P47753;P47757-2) (complex) |  |  | 3 | 3 | 10
